Assays:
Assay in all cases: FRET or BRET
[1] = target: ASIC3(1–43,466–505)1a-CER (rat) (UniProt O35240)
[2] = target: ASIC3(466–505)1a-CER (rat) (UniProt O35240)
[3] = target: ASIC3(506–519)1a-CER (rat) (UniProt O35240)
[4] = target: T1, ASIC3(44–71)1a-CER (rat, UniProt O35240 1-43; P55926 44-71; O35240 72-533)
T1 chain (looked up): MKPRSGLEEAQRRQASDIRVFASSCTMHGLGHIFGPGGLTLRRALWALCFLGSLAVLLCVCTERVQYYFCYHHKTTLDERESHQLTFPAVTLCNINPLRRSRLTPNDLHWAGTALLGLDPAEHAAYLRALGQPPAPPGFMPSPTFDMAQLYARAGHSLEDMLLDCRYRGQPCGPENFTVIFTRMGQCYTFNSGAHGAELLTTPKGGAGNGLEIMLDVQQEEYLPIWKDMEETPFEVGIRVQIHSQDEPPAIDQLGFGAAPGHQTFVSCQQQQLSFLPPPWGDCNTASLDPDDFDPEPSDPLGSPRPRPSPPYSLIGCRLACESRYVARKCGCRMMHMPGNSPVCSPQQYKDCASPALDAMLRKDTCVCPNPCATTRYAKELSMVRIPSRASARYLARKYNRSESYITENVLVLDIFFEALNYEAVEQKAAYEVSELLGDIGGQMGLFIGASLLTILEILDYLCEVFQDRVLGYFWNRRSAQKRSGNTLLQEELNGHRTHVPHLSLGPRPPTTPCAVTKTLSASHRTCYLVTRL

[5] = target: T2, ASIC3(Q269G)-CER (rat, UniProt O35240 1-533, Q269G)
T2 sequence (looked up): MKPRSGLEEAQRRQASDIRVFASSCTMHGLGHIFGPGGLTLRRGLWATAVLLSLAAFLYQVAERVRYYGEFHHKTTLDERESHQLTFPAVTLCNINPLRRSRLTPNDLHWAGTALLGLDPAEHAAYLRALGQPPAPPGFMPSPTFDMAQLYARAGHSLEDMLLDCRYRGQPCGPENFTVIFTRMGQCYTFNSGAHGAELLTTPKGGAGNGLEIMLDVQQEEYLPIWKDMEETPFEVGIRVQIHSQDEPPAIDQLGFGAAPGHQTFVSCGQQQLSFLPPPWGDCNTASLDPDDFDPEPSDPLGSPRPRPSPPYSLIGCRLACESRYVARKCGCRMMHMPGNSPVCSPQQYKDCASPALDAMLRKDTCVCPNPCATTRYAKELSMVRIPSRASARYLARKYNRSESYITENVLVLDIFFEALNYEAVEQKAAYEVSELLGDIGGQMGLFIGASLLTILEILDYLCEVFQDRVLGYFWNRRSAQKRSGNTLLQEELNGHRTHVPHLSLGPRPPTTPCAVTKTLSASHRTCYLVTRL

[6] = target: T3, ASIC3-CER (rat acid-sensing ion channel 3 with a C-terminal mCerulean3) (rat, UniProt O35240 1-533)
T3 sequence (looked up): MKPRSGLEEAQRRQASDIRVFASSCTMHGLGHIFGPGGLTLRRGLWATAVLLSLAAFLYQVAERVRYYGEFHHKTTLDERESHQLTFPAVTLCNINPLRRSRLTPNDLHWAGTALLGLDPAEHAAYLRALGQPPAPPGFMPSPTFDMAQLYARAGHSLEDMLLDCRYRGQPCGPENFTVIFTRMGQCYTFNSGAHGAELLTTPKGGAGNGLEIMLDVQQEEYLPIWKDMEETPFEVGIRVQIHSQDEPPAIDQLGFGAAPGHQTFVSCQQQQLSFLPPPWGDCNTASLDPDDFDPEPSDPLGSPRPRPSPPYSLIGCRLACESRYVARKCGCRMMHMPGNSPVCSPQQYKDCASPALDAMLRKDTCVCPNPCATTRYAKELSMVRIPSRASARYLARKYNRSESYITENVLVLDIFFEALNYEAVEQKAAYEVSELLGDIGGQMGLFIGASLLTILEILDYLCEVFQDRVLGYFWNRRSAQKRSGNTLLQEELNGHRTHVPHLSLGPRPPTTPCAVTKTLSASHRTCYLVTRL

FRET efficiency [1]: 9.3% | FRET efficiency [2]: 13.1% | FRET efficiency [3]: 9.9% | FRET efficiency [4]: 11.8% | FRET efficiency [5]: 10.3% | FRET efficiency [6]: 12.5%
B1: STOM-YFP (mouse stomatin with a C-terminal EYFP) (natural protein, UniProt P54116 1-284, looked up)
chain: MSDKRQSSHVQSQRIPESFRENSKTELGACGWILVAASFFFVIITFPISIWICIKIVKEYERVIIFRLGRILQGGAKGPGLFFILPCTDSLIKVDMRTISFDIPPQEVLTKDSVTISVDGVVYYRVQNATLAVANITNADSATRLLAQTTLRNALGTKNLSQILSDREEIAHHMQSTLDDATDDWGIKVERVEIKDVKLPVQLQRAMAAEAEAAREARAKVIAAEGEMNASRALKEASMVITESPAALQLRYLQTLTTIAAEKNSTIVFPLPVDMLQGIMGSNH

Source: publication PMC7054857 (The Journal of General Physiology, 2020)
